B2: hBMPR1B-Fc (human BMPR1B extracellular domain, residues K14 to R126, fused to human IgG2 Fc) (Fc fusion)
chain: KKEDGESTAPTPRPKVLRCKCHHHCPEDSVNNICSTDGYCFTMIEEDDSGLPVVTSGCLGLEGSDFQCRDTPIPHQRRSIECCTERNECNKDLHPTLPPLKNRDFVDGPIHHR
notes: also called BMPR1B fused to human Fc fragment; not shown: human IgG2 Fc protein

Experiment [1] concerns the target T1, human BMPR1B overexpressed on the surface of HEK293T cells (N-terminal Asp-Lys epitope tag, … (human, UniProt O00238 14-502)). In words: cell-based or functional assay.
For experiment [2], the target named is T2, rat BMPR1B overexpressed on the surface of HEK293T cells (N-terminal Asp-Lys epitope tag, … (rat, UniProt A0A8I6A0G0 62-550)). In words: cell-based or functional assay.
T2 sequence (chain, as listed by the source): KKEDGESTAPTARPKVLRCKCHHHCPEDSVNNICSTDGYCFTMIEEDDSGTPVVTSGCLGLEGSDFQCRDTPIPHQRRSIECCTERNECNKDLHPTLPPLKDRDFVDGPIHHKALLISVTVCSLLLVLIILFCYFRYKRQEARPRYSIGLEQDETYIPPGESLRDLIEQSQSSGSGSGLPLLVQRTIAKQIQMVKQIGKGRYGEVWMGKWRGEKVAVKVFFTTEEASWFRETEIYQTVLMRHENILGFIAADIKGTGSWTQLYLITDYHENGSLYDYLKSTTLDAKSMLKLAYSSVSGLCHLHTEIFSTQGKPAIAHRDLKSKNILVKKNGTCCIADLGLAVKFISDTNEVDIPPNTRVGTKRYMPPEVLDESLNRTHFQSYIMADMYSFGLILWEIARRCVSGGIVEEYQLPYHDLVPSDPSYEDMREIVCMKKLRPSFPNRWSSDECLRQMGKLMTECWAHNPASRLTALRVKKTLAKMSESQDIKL
Experiment [3] concerns the target T3, hBMPR1B-His (human BMPR1B extracellular domain, residues K14 to R126, with C-terminal 9x-Histidine tag) (human, UniProt O00238 14-126).
T3 construct: Residues K14-R126 are counted on the hBMPR1B ORF (NM_001203); The IgK signal peptide of the vector is left out; also called hBMPR1B-CHis; human BMPR1B-his
T3 sequence: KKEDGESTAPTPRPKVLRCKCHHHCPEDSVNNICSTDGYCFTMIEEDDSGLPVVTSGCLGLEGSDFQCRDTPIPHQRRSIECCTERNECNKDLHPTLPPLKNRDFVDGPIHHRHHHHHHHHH
The experiment can be described thus: ELISA. For orientation: In an ELISA, binding on a coated surface is turned into a signal by an enzyme label.

The target in experiment [4] is T4, BMPR1A-Fc (recombinant protein used in the screen 1 ELISA) (human, UniProt P36894 24-152, limits assumed).
T4 construct: also called human BMPR1A; not shown: Fc
T4 sequence (P36894 24-152 limits assumed): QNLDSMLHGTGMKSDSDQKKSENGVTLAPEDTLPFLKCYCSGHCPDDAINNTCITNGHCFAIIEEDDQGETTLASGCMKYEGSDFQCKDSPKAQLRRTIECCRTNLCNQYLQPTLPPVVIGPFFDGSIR
In words: ELISA.

Experiment [5] concerns the target T5, irrelevant Fc-tagged protein.
T5 construct: ELISA control; also called irrelevant Fc construct
In words: ELISA.

Experiment [6] addresses B2. The experiment can be described thus: ELISA.
For experiment [7], the target named is T1, human BMPR1B overexpressed on the …. The experiment can be described thus: flow cytometry.
Experiment [8] addresses T2, rat BMPR1B overexpressed on the surface …. The experiment can be described thus: flow cytometry. (In flow cytometry, cells or beads pass a laser one at a time.)
In experiment [9] the target is T6, rat-his.
T6 construct: soluble analyte of the Biacore runs; also called rSCRx91-his; rBMPR1B-CHis
T6 chain: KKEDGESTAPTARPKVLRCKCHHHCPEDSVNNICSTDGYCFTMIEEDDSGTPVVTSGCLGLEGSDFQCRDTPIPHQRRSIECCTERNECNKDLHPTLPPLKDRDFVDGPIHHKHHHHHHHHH
In words: Biacore, 200 nM. Background: Surface plasmon resonance follows binding to a sensor surface in real time, without labels.

Experiment [10] concerns the target T3, hBMPR1B-His (human BMPR1B extracellular …). The experiment can be described thus: Biacore.
For experiment [11], the target named is T7, Cyno-his (cynomolgus).
T7 construct: extracellular domain; soluble analyte of the Biacore runs; also called cSCRx91-his; cBMPR1B-CHis
The experiment can be described thus: Biacore.

Experiment [12] concerns the target T8, BMP4-his (human, UniProt P12644 293-408, limits assumed).
T8 construct: not shown: his tag
T8 sequence (looked up): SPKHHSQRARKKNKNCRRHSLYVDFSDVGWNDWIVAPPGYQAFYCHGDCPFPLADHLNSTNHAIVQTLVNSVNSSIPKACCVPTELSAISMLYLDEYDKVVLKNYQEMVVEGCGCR
The experiment can be described thus: SPR, Biacore T200: BMPR1B-Fc captured on anti-human capture chip, BMP4-his injected at 31.3-500 nM, 1:1 model.

In experiment [13] the target is T9, human BMPR1B coated on MSD plates (construct not stated) (human, UniProt O00238 14-126, limits assumed).
T9 construct: also called BMPR1B receptor
T9 sequence: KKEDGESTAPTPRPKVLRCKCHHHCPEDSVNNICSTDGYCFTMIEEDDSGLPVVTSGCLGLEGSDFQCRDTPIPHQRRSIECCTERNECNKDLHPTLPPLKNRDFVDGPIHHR
In words: MSD ELISA, BMP4 blocked. Also on record: concentration or dose not given beside the values.

In experiment [14] the target is T9, human BMPR1B coated on MSD plates …. The experiment can be described thus: MSD ELISA, BMP2 blocked. Also on record: concentration or dose not given beside the values.
In experiment [15] the target is T3, hBMPR1B-His (human BMPR1B extracellular …). In words: SPR, Biacore T200: BMP2-Fc captured on anti-human capture chip, BMPR1B-his injected at 2.5-40 µM, 1:1 model.

T1 sequence (O00238 14-502): as the sequence (chain, as listed by the source) above, with A12P, T51L, D102N, K113R, A142T, T377N, I397V, M433I counted along it

B1: SC91.11 (antibody, V domains shown)
VH: QVQLQQPGAELVKPGASVKLSCKASGYTFTTYWMHWVKQRPGRGLEWIGRIDPNSGGTKYNEKFKSKATLTVDKPSSTACMQLSSLTSEDSAVYYCASRRGDIDVWGTGTTVTVSS
VL: DIVMTQSQKFMSTSVGDRVSVTCKASQNVGTNVFWYQQKPGQSPKALIYAASYRYSGVPDRFTGSGSGTDFTLTISNVQSEDLADYFCQQYDSYPLTFGDGTKLELR
As usually defined, the Kd is the equilibrium constant for the complex coming apart. As to B1, the “% live, Fab-saporin, 100pM” value in experiment [1] is 15.5%; in experiment [2] it was 68.7%. Also, the ELISA was found to be 0.791 in experiment [3], 0.117 in experiment [4], 0.04 in experiment [5] and 0.387 in experiment [6]. Besides, the “Flow cytometry MFI” value in experiment [7] was found to be 7330; in experiment [8] it was 4660. Further, the binding result in experiment [9] is on record as “binds”. The results for the Kd in [10] and in experiment [11] were 1.15 nM and 11.1 nM, respectively.
Regarding B2, the Kd in experiment [12] is 1.2 nM.

B3: SC91.19 (antibody, V domains shown)
VH: QIQLVQSGPELKKPGETVKISCKASGYTFTTYGMNWVKQAPGKGLKWMGWINTYSGVPSSANDFKGRFAFSLETSASTAYLQINNLKNEDTATYFCARSELRNWYFDVWGTGTTVTVSS
VL: SFVMTQTPKFLLVSAGDRVTITCKASQSVGNDVAWYQQKPGQSPKLLIYYASNRYTGVPDRFTGSGYGTDFTFTISTVQAEDLAVYFCQQDYSSPFTFGSGTKLEMK
For orientation: % inhibition means how much of the control response was suppressed. As to B3, the “% live, Fab-saporin, 100pM” value turned out to be 14.3% in [1] and 102% in experiment [2]. The ELISA was 1.46 in [3], 0.121 in experiment [4], 0.05 in [5] and 0.737 in [6]. Besides, the “Flow cytometry MFI” value in experiment [7] was found to be 7250; in [8], 470. Besides, the figures for the “% inhibition” value in experiment [13] and in [14] were 61% and 32%, respectively. The binding result in experiment [9] is “binds”. Also, in experiment [10], binding was characterised by a dissociation constant (Kd) of 8.46 nM.

B4: SC91.3 (murine anti-BMPR1B antibody) (antibody, V domains shown)
VH: QVQLQQPGAELVKPGASVKLSCKASGYTFTSYWMQWVKQRPGQGLEWIGEIDPSDSYTLYNQKFKGKATLTVDTSSSTAYMQLSSLTSEDSAVYFCARFGYYIEYWGQGTTLTVSS
VL: DVVMTQTPLSLPVSLGDQASISCRSSQSLVHSTGNTYLHWYLQKPGQSPKLLIYKVSNRFSGVPDRFSGSGSGTDFTLKISRVEAEDLGVYFCSQSTHVPFTFGSGTKLEIK
notes: Murine hybridoma antibody
Consider B4, for which the “% live, Fab-saporin, 100pM” value was 9.34% in experiment [1] and 16% in [2]. In addition, the ELISA is 0.883 in experiment [3], 0.035 in [4], 0.039 in experiment [5] and 0.423 in experiment [6]. Further, the “Flow cytometry MFI” value worked out at 6840 in experiment [7] and 5840 in [8]. In experiment [9], the binding result is listed as “binds”. In addition, the Kd was 0.163 nM in experiment [10] and 0.503 nM in [11].

B5: BMP2 fused to a human Fc fragment (Fc fusion, UniProt P12643 283-396, looked up)
chain: QAKHKQRKRLKSSCKRHPLYVDFSDVGWNDWIVAPPGYHAFYCHGECPFPLADHLNSTNHAIVQTLVNSVNSKIPKACCVPTELSAISMLYLDENEKVVLKNYQDMVVEGCGCR
notes: not shown: human Fc fragment
B5 showed a Kd in experiment [15] of 61000 nM.

Source of the values: patent US20190153103A1 (AbbVie / Abbott, published 2019).
